{
  "source": "patent US20240382614A1",
  "about": "“Self-Assembling Nanoparticles Based On Amphiphilic Peptides for Drug Delivery Applications” (Barinthus Biotherapeutics North America, Inc., priority 2021, published 2024)",
  "key": {"[1]": {"tested_on": "coculture of antigen presenting cells and CD4 T cell clones (“OT-II cells”)", "assay": "IFNγ and IL-17 in supernatant of coculture of antigen presenting cells and OT-II CD4 T cell clones", "type": "cell-based", "details": "D1 in particles of Compound 113 with D2 Compound 166, with or without D3 Compound 4 (Table 10)", "procedure": "The cell culture supernatant was assessed for the cytokines IFNγ and IL-17 to assess for the proliferation of Th1- and Th17-type CD4 T cells, respectively (FIG. 11)."}, "[2]": {"assay": "Turbidity (OD 490 nm) of particle formulations", "type": "physicochemical", "details": "Table 15; no 2nd amphiphile", "procedure": "It was unknown how the surface group (SG) would impact the tolerability of amphiphiles of formula S-B-H-D carrying an immunostimulant. Therefore, to evaluate the impact of surface group composition on tolerability, amphiphiles of varying SG and drug molecule composition were prepared and evaluated in mice (Table 15 and FIG. 14)."}, "[3]": {"tested_on": "coculture of antigen presenting cells and CD4 T cell clones (“OT-II cells”)", "assay": "CD4 T cell induction in coculture of antigen presenting cells and OT-II CD4 T cell clones", "type": "cell-based", "details": "D1 in particles of Compound 113 with D2 Compound 166 and D3 MDP, TDB, MPL, LPS or Compound 4 (Table 9, FIG. 10)"}, "[4]": {"assay": "Solubility and loading of mTOR inhibitors in nanoparticle micelles of amphiphiles S-B-[U]-H", "type": "physicochemical", "details": "admixed with amphiphile Compound 113"}, "[5]": {"tested_on": "T1, Ac-A′SK(Ac)SB-AMC (Compound 18)", "T1 sequence": "XSKSX"}, "[6]": {"tested_on": "T2, Ac-A′SK(Ac)SnL-AMC (Compound 24)", "T2 sequence": "XSKSX"}, "[7]": {"tested_on": "T3, Ac-A′SK(Ac)VB-AMC (Compound 16)", "T3 sequence": "XSKVX"}, "[8]": {"tested_on": "T4, Ac-A′SK(Ac)VnL-AMC (Compound 22)", "T4 sequence": "XSKVX"}, "[9]": {"tested_on": "T5, Ac-A′SKSB-AMC (Compound 19)", "T5 sequence": "XSKSX"}, "[10]": {"tested_on": "T6, Ac-A′SKSnL-AMC (Compound 25)", "T6 sequence": "XSKSX"}, "[11]": {"tested_on": "T7, Ac-A′SKVB-AMC (Compound 17)", "T7 sequence": "XSKVX"}, "[12]": {"tested_on": "T8, Ac-A′SKVnL-AMC (Compound 23)", "T8 sequence": "XSKVX"}, "[13]": {"tested_on": "T9, Ac-A′SPVB-AMC (Compound 15)", "T9 sequence": "XSPVX"}, "[14]": {"tested_on": "T10, Ac-A′SPVnL-AMC (Compound 21)", "T10 sequence": "XSPVX"}, "[15]": {"tested_on": "T11, Ac-A′VB-AMC (Compound 14)", "T11 sequence": "XVX"}, "[16]": {"tested_on": "T12, Ac-A′VnL-AMC (Compound 20)", "T12 sequence": "XVX"}},
  "data": [
    {"compound": "COc1ccc(-c2ccc3c(N4CCOC[C@@H]4C)nc(N4CCOC[C@@H]4C)nc3n2)cc1CO", "note": "[AZD8055]", "values": [
      {"measurement": "suppression of Th1-type CD4 T cell response (IFNγ)", "setting": "[1]", "value": "substantially improved T cell response suppression as compared with Rapa, CC223 and OSI-027"}
    ]},
    {"compound": "CCOCc1nc2c(N)nc3ccccc3c2n1CC(C)(C)O", "note": "[Compound R848]", "values": [
      {"measurement": "Turbidity", "setting": "[2]", "value": 0.039}
    ]},
    {"compound": "CC(C)n1nc(-c2ccc3oc(N)nc3c2)c2c(N)ncnc21", "note": "[INK-128]", "values": [
      {"measurement": "suppression of Th1-type CD4 T cell response (IFNγ)", "setting": "[1]", "value": "substantially improved T cell response suppression as compared with Rapa, CC223 and OSI-027"}
    ]},
    {"compound": "CCC(=O)N1CCN(c2ccc(-n3c(=O)ccc4cnc5ccc(-c6cnc7ccccc7c6)cc5c43)cc2C(F)(F)F)CC1", "note": "[Torin 1]", "values": [
      {"measurement": "suppression of T cell responses against D2", "setting": "[3]", "value": "greater T cell suppression as compared with Rapamycin"},
      {"measurement": "suppression of Th1-type CD4 T cell response (IFNγ)", "setting": "[1]", "value": "substantially improved T cell response suppression as compared with Rapa, CC223 and OSI-027"},
      {"measurement": "solubility in DMSO and aqueous buffer", "setting": "[4]", "value": "markedly improved the solubility"}
    ]},
    {"compound": "CNC(=O)Nc1ccc(-c2nc(N3CC4CCC(C3)O4)c3cnn(C4CCC5(CC4)OCCO5)c3n2)cc1", "note": "[WYE132]", "values": [
      {"measurement": "suppression of Th1-type CD4 T cell response (IFNγ)", "setting": "[1]", "value": "substantially improved T cell response suppression as compared with Rapa, CC223 and OSI-027"}
    ]},
    {"compound": "Cathepsin B (Sino Biological)", "values": [
      {"measurement": "percent of peptide-AMC that is cleaved", "setting": "[5]", "value": "norleucine (nL) and alpha-amino butyric (B or aBut) are tolerated at the P1 position"},
      {"measurement": "percent of peptide-AMC that is cleaved", "setting": "[6]", "value": "norleucine (nL) and alpha-amino butyric (B or aBut) are tolerated at the P1 position"},
      {"measurement": "percent of peptide-AMC that is cleaved", "setting": "[7]", "value": "norleucine (nL) and alpha-amino butyric (B or aBut) are tolerated at the P1 position"},
      {"measurement": "percent of peptide-AMC that is cleaved", "setting": "[8]", "value": "norleucine (nL) and alpha-amino butyric (B or aBut) are tolerated at the P1 position"},
      {"measurement": "percent of peptide-AMC that is cleaved", "setting": "[9]", "value": "norleucine (nL) and alpha-amino butyric (B or aBut) are tolerated at the P1 position"},
      {"measurement": "percent of peptide-AMC that is cleaved", "setting": "[10]", "value": "norleucine (nL) and alpha-amino butyric (B or aBut) are tolerated at the P1 position"},
      {"measurement": "percent of peptide-AMC that is cleaved", "setting": "[11]", "value": "norleucine (nL) and alpha-amino butyric (B or aBut) are tolerated at the P1 position"},
      {"measurement": "percent of peptide-AMC that is cleaved", "setting": "[12]", "value": "norleucine (nL) and alpha-amino butyric (B or aBut) are tolerated at the P1 position"},
      {"measurement": "percent of peptide-AMC that is cleaved", "setting": "[13]", "value": "norleucine (nL) and alpha-amino butyric (B or aBut) are tolerated at the P1 position"},
      {"measurement": "percent of peptide-AMC that is cleaved", "setting": "[14]", "value": "norleucine (nL) and alpha-amino butyric (B or aBut) are tolerated at the P1 position"},
      {"measurement": "percent of peptide-AMC that is cleaved", "setting": "[15]", "value": "norleucine (nL) and alpha-amino butyric (B or aBut) are tolerated at the P1 position"},
      {"measurement": "percent of peptide-AMC that is cleaved", "setting": "[16]", "value": "norleucine (nL) and alpha-amino butyric (B or aBut) are tolerated at the P1 position"}
    ]}
  ]
}
